Positions of bridges follow the written chain, without caps; N, C: chain ends. No end group written: not given here.
T1: rat NPR-A (rat, UniProt P18910 29-1057)
T1 sequence (looked up): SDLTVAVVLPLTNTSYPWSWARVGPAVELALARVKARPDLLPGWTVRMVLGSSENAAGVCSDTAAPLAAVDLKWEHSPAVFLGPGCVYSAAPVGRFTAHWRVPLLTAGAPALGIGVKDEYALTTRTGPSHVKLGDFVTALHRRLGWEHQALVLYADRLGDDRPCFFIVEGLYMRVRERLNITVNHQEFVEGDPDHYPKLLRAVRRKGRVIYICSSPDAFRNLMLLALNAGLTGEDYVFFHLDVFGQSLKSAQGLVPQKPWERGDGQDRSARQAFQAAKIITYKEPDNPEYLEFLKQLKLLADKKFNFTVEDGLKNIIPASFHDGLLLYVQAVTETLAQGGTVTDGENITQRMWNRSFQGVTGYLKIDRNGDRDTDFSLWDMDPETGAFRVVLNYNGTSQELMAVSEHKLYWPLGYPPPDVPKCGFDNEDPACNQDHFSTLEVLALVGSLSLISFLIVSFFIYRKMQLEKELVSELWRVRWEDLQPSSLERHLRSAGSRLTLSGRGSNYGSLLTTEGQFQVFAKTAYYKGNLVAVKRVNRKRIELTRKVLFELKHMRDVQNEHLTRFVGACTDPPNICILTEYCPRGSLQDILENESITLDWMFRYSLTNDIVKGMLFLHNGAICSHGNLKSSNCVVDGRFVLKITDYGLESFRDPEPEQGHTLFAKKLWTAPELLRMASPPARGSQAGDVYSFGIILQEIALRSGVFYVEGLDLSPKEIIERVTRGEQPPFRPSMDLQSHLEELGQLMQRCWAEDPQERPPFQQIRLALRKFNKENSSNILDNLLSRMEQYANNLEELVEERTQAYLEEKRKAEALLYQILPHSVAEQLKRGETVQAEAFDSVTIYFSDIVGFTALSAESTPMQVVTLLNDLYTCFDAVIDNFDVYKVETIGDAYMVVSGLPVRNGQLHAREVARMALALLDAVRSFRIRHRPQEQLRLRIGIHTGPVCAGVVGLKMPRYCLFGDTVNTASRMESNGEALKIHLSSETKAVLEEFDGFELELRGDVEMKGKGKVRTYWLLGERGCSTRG


How the values were obtained:
rat NPR-A [1] = target: T1, rat NPR-A; assay: cell-based or functional assay
rat NPR-A [2] = target: T1, rat NPR-A; assay: cell-based or functional assay; remark: listed apart in the source

Row | Binder | NPR-A activation potency IC50 (rat NPR-A [1]) | NPR-A activation potency: Ratio compared ANP (rat NPR-A [1]) | NPR-A activation potency: Ratio compared wild type NPs (rat NPR-A [1]) | Rate of generation of cGMP (pmol cGMP/pmol peptide) (rat NPR-A [1]) | Rate of generation of cGMP: Ratio compared ANP (rat NPR-A [1]) | Rate of generation of cGMP: Ratio compared wild type NPs (rat NPR-A [1]) | time to produce similar levels of cGMP (time-chase at EC50 concentration) (rat NPR-A [2]) | activation kinetics compared to K-Ring (rat NPR-A [2]) | potency of cGMP response compared to K-Ring (rat NPR-A [2])
1 | GLLISCFDRRIDRISHTSDIGCRH (disulfide 6-22) [K-Ring] | 244 nM | 14.1 ratio | 1 ratio | 0.0228 pmol cGMP/pmol peptide | 350 ratio | 1 ratio | 30 min | – | –
2 | GLLISCFGRRIDRISHTSDIGCRH (disulfide 6-22) [^GRDK-Ring] | 50.7 nM | 2.9 ratio | -4.8 ratio | 0.113 pmol cGMP/pmol peptide | 70.5 ratio | 5 ratio | – | – | –
3 | GLLISCFDRRIDRISHTSGIGCRH (disulfide 6-22) [^DRGK-Ring] | 694 nM | 40.1 ratio | 2.8 ratio | 0.007 pmol cGMP/pmol peptide | 1140 ratio | 3.2 ratio | – | – | –
4 | GLLISCFDGRIDRISHTSDIGCRH (disulfide 6-22) [^DGDK-Ring] | 866 nM | 50.1 ratio | 3.6 ratio | 0.005 pmol cGMP/pmol peptide | 1590 ratio | 4.6 ratio | – | – | –
5 | GLLISCFGRRIDRISHTSGIGCRH (disulfide 6-22) [^GRGK-Ring] | 87.7 nM | 5.1 ratio | -2.8 ratio | 0.19 pmol cGMP/pmol peptide | 41.9 ratio | 8.3 ratio | – | 3 fold | 4 fold
6 | GLLISCFDRRIDRISHTSDIGCNSFRY (disulfide 6-22) [K-Ring^NSFRY] | 43.8 nM | 2.5 ratio | -5.6 ratio | 0.31 pmol cGMP/pmol peptide | 25.7 ratio | 13.6 ratio | – | – | –
7 | SLRRSSCFDGRMDRIGAQSDLGCNSFRY (disulfide 7-23 (inferred)) [^DGDANP] | 135 nM | 7.8 ratio | 7.8 ratio | 0.14 pmol cGMP/pmol peptide | 56.9 ratio | 56.9 ratio | – | – | –
8 | SLRRSSCFDRRMDRIGAQSDLGCNSFRY (disulfide 7-23 (inferred)) [^DRDANP] | 45.2 nM | 2.6 ratio | 2.6 ratio | 0.38 pmol cGMP/pmol peptide | 21 ratio | 21 ratio | – | – | –

From patent US20190211071A1 (NATIONAL UNIVERSITY OF SINGAPORE, published 2019)
